Experimental data as given in patent US20220204580A1 (AstraZeneca / MedImmune, published 2022).
Numbered stars: 1 amine (or outer) side, 2 acyl side, 3 side chain; on linkers, the order of the positions; unused ones are H or OH. Bridge positions count the residues as written; N and C are the ends. Square brackets hold non-standard residues; d marks the D form. Side chains are listed from the residue outwards. Ends that are not written are not given here. * marks the point of attachment. C18 diacid = O=C(O)CCCCCCCCCCCCCCCCC(=O)*; γGlu = O=C(O)[C@H](CCC(=O)[*:2])N[*:1]; Aib = CC(C)(N)C(=O)O

T1: human calcitonin receptor (human, UniProt P30988 25-474)
T1 sequence (looked up): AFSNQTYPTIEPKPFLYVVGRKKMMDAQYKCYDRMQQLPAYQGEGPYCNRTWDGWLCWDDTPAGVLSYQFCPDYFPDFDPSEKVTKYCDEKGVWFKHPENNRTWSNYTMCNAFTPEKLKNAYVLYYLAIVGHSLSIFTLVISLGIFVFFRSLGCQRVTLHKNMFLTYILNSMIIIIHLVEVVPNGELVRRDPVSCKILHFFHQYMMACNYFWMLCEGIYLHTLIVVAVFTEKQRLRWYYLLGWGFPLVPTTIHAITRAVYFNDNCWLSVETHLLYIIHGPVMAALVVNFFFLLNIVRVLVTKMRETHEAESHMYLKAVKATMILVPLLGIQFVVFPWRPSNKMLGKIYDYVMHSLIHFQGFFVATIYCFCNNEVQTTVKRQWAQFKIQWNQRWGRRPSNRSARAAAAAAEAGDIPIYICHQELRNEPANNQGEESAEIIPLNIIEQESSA

T2: human amylin receptor (calcitonin receptor co-expressed with receptor activity modifying protein, RAMP3) (human, UniProt P30988 25-474; O60896 24-148)
T2 sequence (looked up) 1: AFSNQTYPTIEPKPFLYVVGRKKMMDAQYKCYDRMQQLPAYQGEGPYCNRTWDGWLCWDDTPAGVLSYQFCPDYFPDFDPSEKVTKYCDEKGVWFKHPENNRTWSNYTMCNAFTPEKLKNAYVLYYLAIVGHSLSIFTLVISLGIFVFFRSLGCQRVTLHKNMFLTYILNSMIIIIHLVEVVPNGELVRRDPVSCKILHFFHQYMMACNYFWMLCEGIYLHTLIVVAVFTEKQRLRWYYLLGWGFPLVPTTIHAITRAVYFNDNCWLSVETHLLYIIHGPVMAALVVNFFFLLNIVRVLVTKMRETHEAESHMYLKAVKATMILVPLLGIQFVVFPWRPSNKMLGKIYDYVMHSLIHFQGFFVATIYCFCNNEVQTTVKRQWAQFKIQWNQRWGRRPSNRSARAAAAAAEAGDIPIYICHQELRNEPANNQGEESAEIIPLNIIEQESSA
T2 sequence (looked up) 2: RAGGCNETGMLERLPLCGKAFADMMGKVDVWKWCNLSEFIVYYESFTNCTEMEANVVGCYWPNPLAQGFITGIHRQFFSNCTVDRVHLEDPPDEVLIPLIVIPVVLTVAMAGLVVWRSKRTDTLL


Experiments:
[1] = target: T1, human calcitonin receptor; experiment: cell-based or functional assay
[2] = target: T2, human amylin receptor (calcitonin …); experiment: cell-based or functional assay

| EC50 (cAMP production) [1] [nM] | EC50 (cAMP production) [2] [nM] | Ratio (EC50 hCTR / EC50 hAMYR3) [2] | Binder |
| --- | --- | --- | --- |
| 44.4 | 0.341 | 130 | K([γGlu-γGlu-C18 diacid])CNTATCATQRLANFLRHSS[Aib]NFGPILPPTNVGS[Aib]TY-NH2 (disulfide 2-7; N-terminus assumed; SMILES CC[C@H](C)[C@H](NC(=O)[C@@H]1CCCN1C(=O)CNC(=O)[C@H](Cc1ccccc1)NC(=O)[C@H](CC(N)=O)NC(=O)C(C)(C)NC(=O)[C@H](CO)NC(=O)[C@H](CO)NC(=O)[C@H](Cc1c[nH]cn1)NC(=O)[C@H](CCCNC(=N)N)NC(=O)[C@H](CC(C)C)NC(=O)[C@H](Cc1ccccc1)NC(=O)[C@H](CC(N)=O)NC(=O)[C@H](C)NC(=O)[C@H](CC(C)C)NC(=O)[C@H](CCCNC(=N)N)NC(=O)[C@H](CCC(N)=O)NC(=O)[C@@H](NC(=O)[C@H](C)NC(=O)[C@@H]1CSSC[C@H](NC(=O)[C@@H](N)CCCCNC(=O)CC[C@H](NC(=O)CC[C@H](NC(=O)CCCCCCCCCCCCCCCCC(=O)O)C(=O)O)C(=O)O)C(=O)N[C@@H](CC(N)=O)C(=O)N[C@@H]([C@@H](C)O)C(=O)N[C@@H](C)C(=O)N[C@@H]([C@@H](C)O)C(=O)N1)[C@@H](C)O)C(=O)N[C@@H](CC(C)C)C(=O)N1CCC[C@H]1C(=O)N1CCC[C@H]1C(=O)N[C@H](C(=O)N[C@@H](CC(N)=O)C(=O)N[C@H](C(=O)NCC(=O)N[C@@H](CO)C(=O)NC(C)(C)C(=O)N[C@H](C(=O)N[C@@H](Cc1ccc(O)cc1)C(N)=O)[C@@H](C)O)C(C)C)[C@@H](C)O) [Peptide 92 (SEQ ID NO: 92)] |
| 1.9 | 0.322 | 6 | K([γGlu-C18 diacid])KCNTATCATQRLANFL[Aib]HSSNNFGP[Aib]LPPTNVGSNTY-NH2 (disulfide 3-8; N-terminus assumed; SMILES CC(C)C[C@H](NC(=O)[C@H](CCCNC(=N)N)NC(=O)[C@H](CCC(N)=O)NC(=O)[C@@H](NC(=O)[C@H](C)NC(=O)[C@@H]1CSSC[C@H](NC(=O)[C@H](CCCCN)NC(=O)[C@@H](N)CCCCNC(=O)CC[C@H](NC(=O)CCCCCCCCCCCCCCCCC(=O)O)C(=O)O)C(=O)N[C@@H](CC(N)=O)C(=O)N[C@@H]([C@@H](C)O)C(=O)N[C@@H](C)C(=O)N[C@@H]([C@@H](C)O)C(=O)N1)[C@@H](C)O)C(=O)N[C@@H](C)C(=O)N[C@@H](CC(N)=O)C(=O)N[C@@H](Cc1ccccc1)C(=O)N[C@@H](CC(C)C)C(=O)NC(C)(C)C(=O)N[C@@H](Cc1c[nH]cn1)C(=O)N[C@@H](CO)C(=O)N[C@@H](CO)C(=O)N[C@@H](CC(N)=O)C(=O)N[C@@H](CC(N)=O)C(=O)N[C@@H](Cc1ccccc1)C(=O)NCC(=O)N1CCC[C@H]1C(=O)NC(C)(C)C(=O)N[C@@H](CC(C)C)C(=O)N1CCC[C@H]1C(=O)N1CCC[C@H]1C(=O)N[C@H](C(=O)N[C@@H](CC(N)=O)C(=O)N[C@H](C(=O)NCC(=O)N[C@@H](CO)C(=O)N[C@@H](CC(N)=O)C(=O)N[C@H](C(=O)N[C@@H](Cc1ccc(O)cc1)C(N)=O)[C@@H](C)O)C(C)C)[C@@H](C)O) [Peptide 94 (SEQ ID NO: 94)] |

Continued, binder first:

| Binder | EC50 (cAMP production) [1] [nM] | EC50 (cAMP production) [2] [nM] | Ratio (EC50 hCTR / EC50 hAMYR3) [2] |
| --- | --- | --- | --- |
| K([γGlu-γGlu-C18 diacid])CNTATCATQRLANFLRHSS[Aib]NFGPILPPT[Aib]VGSNTY-NH2 (disulfide 2-7; N-terminus assumed; SMILES CC[C@H](C)[C@H](NC(=O)[C@@H]1CCCN1C(=O)CNC(=O)[C@H](Cc1ccccc1)NC(=O)[C@H](CC(N)=O)NC(=O)C(C)(C)NC(=O)[C@H](CO)NC(=O)[C@H](CO)NC(=O)[C@H](Cc1c[nH]cn1)NC(=O)[C@H](CCCNC(=N)N)NC(=O)[C@H](CC(C)C)NC(=O)[C@H](Cc1ccccc1)NC(=O)[C@H](CC(N)=O)NC(=O)[C@H](C)NC(=O)[C@H](CC(C)C)NC(=O)[C@H](CCCNC(=N)N)NC(=O)[C@H](CCC(N)=O)NC(=O)[C@@H](NC(=O)[C@H](C)NC(=O)[C@@H]1CSSC[C@H](NC(=O)[C@@H](N)CCCCNC(=O)CC[C@H](NC(=O)CC[C@H](NC(=O)CCCCCCCCCCCCCCCCC(=O)O)C(=O)O)C(=O)O)C(=O)N[C@@H](CC(N)=O)C(=O)N[C@@H]([C@@H](C)O)C(=O)N[C@@H](C)C(=O)N[C@@H]([C@@H](C)O)C(=O)N1)[C@@H](C)O)C(=O)N[C@@H](CC(C)C)C(=O)N1CCC[C@H]1C(=O)N1CCC[C@H]1C(=O)N[C@H](C(=O)NC(C)(C)C(=O)N[C@H](C(=O)NCC(=O)N[C@@H](CO)C(=O)N[C@@H](CC(N)=O)C(=O)N[C@H](C(=O)N[C@@H](Cc1ccc(O)cc1)C(N)=O)[C@@H](C)O)C(C)C)[C@@H](C)O) [Peptide 90 (SEQ ID NO: 90)] | 15.6 | 1.06 | 15 |
| K([γGlu-γGlu-C18 diacid])CNTATCATQRLANFLVHSS[Aib]NFGPILPPTNVGS[Aib]TY-NH2 (disulfide 2-7; N-terminus assumed; SMILES CC[C@H](C)[C@H](NC(=O)[C@@H]1CCCN1C(=O)CNC(=O)[C@H](Cc1ccccc1)NC(=O)[C@H](CC(N)=O)NC(=O)C(C)(C)NC(=O)[C@H](CO)NC(=O)[C@H](CO)NC(=O)[C@H](Cc1c[nH]cn1)NC(=O)[C@@H](NC(=O)[C@H](CC(C)C)NC(=O)[C@H](Cc1ccccc1)NC(=O)[C@H](CC(N)=O)NC(=O)[C@H](C)NC(=O)[C@H](CC(C)C)NC(=O)[C@H](CCCNC(=N)N)NC(=O)[C@H](CCC(N)=O)NC(=O)[C@@H](NC(=O)[C@H](C)NC(=O)[C@@H]1CSSC[C@H](NC(=O)[C@@H](N)CCCCNC(=O)CC[C@H](NC(=O)CC[C@H](NC(=O)CCCCCCCCCCCCCCCCC(=O)O)C(=O)O)C(=O)O)C(=O)N[C@@H](CC(N)=O)C(=O)N[C@@H]([C@@H](C)O)C(=O)N[C@@H](C)C(=O)N[C@@H]([C@@H](C)O)C(=O)N1)[C@@H](C)O)C(C)C)C(=O)N[C@@H](CC(C)C)C(=O)N1CCC[C@H]1C(=O)N1CCC[C@H]1C(=O)N[C@H](C(=O)N[C@@H](CC(N)=O)C(=O)N[C@H](C(=O)NCC(=O)N[C@@H](CO)C(=O)NC(C)(C)C(=O)N[C@H](C(=O)N[C@@H](Cc1ccc(O)cc1)C(N)=O)[C@@H](C)O)C(C)C)[C@@H](C)O) [Peptide 91 (SEQ ID NO: 91)] | 2.36 | 0.2 | 12 |
